Assay [1] deals with T1, Recombinant human FAP (R&D systems, #3715-SE) (human).
T1 sequence: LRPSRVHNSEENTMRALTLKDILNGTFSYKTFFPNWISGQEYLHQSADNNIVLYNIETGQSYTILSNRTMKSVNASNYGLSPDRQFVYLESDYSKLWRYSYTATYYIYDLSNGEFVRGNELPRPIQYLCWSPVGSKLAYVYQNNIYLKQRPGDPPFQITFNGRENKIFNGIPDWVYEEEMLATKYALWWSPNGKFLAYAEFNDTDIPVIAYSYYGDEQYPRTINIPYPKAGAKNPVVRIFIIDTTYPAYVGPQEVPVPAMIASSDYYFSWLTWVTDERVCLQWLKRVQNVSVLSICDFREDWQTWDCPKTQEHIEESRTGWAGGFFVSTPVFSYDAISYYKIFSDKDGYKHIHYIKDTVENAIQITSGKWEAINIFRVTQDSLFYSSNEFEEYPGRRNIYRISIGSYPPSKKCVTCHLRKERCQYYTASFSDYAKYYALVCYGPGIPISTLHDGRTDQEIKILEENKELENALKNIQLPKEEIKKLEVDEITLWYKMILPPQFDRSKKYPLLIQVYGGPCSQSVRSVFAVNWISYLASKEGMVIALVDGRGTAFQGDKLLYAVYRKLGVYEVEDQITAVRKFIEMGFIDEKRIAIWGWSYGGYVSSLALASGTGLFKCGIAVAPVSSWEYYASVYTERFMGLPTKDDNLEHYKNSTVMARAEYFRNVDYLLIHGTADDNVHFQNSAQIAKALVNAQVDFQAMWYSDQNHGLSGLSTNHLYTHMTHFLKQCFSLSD

Assay [2] concerns the target Activated Protein C (Homo sapiens (Human)) (UniProt P04070).
For assay [3], the target named is Beta secretase (Homo sapiens (Human)) (UniProt P56817).
The target in assay [4] is T2, Caspase-7 (Homo sapiens (Human)) (UniProt P55210).
T2 sequence: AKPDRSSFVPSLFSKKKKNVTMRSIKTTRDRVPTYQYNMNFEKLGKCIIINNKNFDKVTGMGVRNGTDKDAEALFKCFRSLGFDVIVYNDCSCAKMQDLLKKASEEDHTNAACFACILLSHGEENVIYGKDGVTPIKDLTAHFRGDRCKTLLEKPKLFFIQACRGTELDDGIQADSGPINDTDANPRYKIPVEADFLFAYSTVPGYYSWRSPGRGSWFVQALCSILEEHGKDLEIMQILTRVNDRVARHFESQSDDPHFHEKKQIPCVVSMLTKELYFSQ

For assay [5], the target named is Caspase-8 (Homo sapiens (Human)) (UniProt Q14790).
Caspase-8 (Homo sapiens (Human)), sequence (Q14790 217-479 limits assumed): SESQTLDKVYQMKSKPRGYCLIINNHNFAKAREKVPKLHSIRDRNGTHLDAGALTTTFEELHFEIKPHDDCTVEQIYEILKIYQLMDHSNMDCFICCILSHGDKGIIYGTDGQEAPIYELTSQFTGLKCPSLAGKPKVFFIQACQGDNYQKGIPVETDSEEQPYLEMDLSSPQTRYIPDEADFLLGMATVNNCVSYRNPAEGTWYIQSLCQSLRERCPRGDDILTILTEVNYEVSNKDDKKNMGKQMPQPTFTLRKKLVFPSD
Assay [6] addresses Caspase-9 (Homo sapiens (Human)) (UniProt P55211).
Assay [7] concerns the target Cathepsin S (Homo sapiens (Human)) (UniProt P25774).
Assay [8] has as its target Cathepsin V (Homo sapiens (Human)) (UniProt O60911).
Assay [9] deals with DPP7 (Homo sapiens (Human)) (UniProt Q9UHL4).
The target in assay [10] is FAP (Homo sapiens (Human)) (UniProt Q12884).
Assay [11] concerns the target Matrix metalloprotease 2 (Homo sapiens (Human)) (UniProt P08253).
The target in assay [12] is Matrix metalloprotease1 (Homo sapiens (Human)) (UniProt P03956).
Matrix metalloprotease1 (Homo sapiens (Human)), sequence (P03956 100-469): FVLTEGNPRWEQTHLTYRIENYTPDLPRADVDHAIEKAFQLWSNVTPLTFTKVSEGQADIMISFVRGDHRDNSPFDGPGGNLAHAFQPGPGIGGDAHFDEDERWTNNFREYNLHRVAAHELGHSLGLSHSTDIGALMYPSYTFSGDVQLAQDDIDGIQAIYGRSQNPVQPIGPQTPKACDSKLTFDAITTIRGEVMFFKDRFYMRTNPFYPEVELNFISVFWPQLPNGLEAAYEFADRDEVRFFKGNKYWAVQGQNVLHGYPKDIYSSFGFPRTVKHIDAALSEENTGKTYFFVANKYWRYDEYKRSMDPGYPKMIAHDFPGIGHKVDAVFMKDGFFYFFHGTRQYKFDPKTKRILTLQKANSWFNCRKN
Assay [13] concerns the target Ubiquitin carboxy-terminal hydrolase 5 (Homo sapiens (Human)) (UniProt P45974).
Assay [14] addresses Ubiquitin carboxy-terminal hydrolase 7 (Homo sapiens (Human)) (UniProt Q93009).
The target of assay [15] is T3, DPP3 (Homo sapiens (Human)) (UniProt Q9NY33).
T3 sequence: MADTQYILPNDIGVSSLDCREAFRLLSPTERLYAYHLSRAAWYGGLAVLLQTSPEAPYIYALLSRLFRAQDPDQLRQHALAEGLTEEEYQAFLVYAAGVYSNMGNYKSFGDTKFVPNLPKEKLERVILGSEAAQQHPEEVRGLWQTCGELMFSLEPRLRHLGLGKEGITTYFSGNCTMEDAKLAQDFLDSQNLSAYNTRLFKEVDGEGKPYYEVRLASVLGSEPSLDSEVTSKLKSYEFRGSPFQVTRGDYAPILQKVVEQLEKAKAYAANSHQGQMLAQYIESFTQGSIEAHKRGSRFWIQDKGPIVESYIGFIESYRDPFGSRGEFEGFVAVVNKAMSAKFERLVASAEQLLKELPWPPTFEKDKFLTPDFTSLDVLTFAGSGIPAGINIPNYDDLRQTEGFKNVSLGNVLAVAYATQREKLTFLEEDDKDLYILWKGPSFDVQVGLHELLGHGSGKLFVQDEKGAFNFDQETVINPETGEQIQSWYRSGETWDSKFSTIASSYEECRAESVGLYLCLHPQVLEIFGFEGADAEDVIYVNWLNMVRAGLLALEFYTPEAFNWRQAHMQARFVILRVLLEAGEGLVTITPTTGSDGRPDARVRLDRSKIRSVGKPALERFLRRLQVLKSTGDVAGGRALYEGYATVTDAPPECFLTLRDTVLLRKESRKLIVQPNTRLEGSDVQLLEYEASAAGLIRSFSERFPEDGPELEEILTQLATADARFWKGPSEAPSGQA

Ubiquitin carboxy-terminal hydrolase 5 (Homo sapiens (Human)), sequence (P45974 whole entry): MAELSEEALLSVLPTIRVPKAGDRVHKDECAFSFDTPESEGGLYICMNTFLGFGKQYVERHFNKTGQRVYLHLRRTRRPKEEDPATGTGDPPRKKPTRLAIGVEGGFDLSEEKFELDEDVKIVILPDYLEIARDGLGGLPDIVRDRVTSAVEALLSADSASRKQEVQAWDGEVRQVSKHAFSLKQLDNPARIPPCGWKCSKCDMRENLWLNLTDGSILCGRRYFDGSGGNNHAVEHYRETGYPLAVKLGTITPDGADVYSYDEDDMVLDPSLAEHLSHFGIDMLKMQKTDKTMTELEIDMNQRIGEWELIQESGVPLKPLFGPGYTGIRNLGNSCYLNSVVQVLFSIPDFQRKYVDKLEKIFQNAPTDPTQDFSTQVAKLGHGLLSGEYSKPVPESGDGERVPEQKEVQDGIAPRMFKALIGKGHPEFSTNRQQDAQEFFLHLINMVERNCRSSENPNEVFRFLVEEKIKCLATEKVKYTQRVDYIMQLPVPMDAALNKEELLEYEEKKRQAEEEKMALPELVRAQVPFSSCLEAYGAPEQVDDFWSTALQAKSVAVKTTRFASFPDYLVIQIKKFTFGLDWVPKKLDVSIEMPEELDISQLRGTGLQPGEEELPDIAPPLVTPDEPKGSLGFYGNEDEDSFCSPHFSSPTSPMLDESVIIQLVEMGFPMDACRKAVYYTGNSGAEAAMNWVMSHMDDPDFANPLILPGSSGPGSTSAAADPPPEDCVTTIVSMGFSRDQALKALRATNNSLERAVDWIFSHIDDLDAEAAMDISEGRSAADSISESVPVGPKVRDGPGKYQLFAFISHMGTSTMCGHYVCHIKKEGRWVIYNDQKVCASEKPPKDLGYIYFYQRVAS
Matrix metalloprotease 2 (Homo sapiens (Human)), sequence (P08253 110-660): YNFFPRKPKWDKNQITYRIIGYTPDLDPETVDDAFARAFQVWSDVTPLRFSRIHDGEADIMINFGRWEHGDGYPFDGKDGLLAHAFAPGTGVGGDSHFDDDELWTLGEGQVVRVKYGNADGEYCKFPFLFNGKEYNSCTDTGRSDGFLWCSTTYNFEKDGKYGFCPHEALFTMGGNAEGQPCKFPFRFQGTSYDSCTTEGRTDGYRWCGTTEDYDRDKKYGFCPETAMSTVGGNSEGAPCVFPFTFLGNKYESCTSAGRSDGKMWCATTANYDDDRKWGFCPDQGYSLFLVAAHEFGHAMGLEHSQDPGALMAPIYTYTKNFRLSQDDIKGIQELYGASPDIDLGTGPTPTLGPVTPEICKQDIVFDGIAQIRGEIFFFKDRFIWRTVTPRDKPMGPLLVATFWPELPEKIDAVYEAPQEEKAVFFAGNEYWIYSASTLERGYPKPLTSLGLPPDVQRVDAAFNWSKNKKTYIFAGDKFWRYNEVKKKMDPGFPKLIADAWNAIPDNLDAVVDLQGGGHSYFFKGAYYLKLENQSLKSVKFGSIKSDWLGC
Caspase-9 (Homo sapiens (Human)), sequence (P55211 whole entry): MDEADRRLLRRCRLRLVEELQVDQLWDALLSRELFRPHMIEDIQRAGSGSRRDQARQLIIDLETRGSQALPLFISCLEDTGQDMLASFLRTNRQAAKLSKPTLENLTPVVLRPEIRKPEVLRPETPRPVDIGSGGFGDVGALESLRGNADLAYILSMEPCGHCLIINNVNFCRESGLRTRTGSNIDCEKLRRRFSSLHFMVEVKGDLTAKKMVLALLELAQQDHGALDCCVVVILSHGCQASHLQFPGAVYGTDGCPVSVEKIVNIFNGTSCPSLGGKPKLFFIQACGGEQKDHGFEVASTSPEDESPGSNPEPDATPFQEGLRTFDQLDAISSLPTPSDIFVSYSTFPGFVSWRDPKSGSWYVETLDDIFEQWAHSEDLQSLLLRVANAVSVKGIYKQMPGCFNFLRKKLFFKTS
Activated Protein C (Homo sapiens (Human)), sequence (P04070 43-461): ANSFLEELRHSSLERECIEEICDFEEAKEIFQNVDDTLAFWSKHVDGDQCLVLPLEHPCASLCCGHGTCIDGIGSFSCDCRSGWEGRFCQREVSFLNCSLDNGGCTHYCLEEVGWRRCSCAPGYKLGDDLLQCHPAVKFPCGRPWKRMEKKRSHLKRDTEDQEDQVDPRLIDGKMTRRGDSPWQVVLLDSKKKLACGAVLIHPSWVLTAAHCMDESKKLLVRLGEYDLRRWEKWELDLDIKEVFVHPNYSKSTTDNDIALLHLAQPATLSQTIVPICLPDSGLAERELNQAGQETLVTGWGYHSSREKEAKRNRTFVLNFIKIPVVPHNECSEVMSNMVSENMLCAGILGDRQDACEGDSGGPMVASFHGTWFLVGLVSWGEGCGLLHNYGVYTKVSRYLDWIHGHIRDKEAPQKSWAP

With “Hex-[Cys(tMeBn(DOTA-PP))-Pro-Pro-Thr-Gln-Phe-Cys]-Asp-NH2 (peptide)”, in assay [1], the pIC50 Category (Activity) was above 8 pIC50. Moreover, the Percentage inhibition (%) at 10 µM is 8% in assay [2]; -5% in assay [3]; -3% in assay [4]; 0% in [5]; 8% in [6]; 18% in assay [7]. In addition, the Percentage inhibition (%) at 10 µM is -18% in [8]; -3% in assay [9]; 3% in [11]; 2% in assay [12]; 46% in [13]; 5% in assay [14]. Besides, the Percentage inhibition (%) at 1 µM in assay [10] was 98%.
Regarding “Hex-[Cys(tMeBn(DOTA-AET))-Pro-Pro-Thr-Gln-Phe-Cys]-OH (peptide)”, the Percentage inhibition (%) at 10 µM was 1% in assay [2]; 7% in [3]; -7% in [4]; -3% in assay [5]; -2% in assay [6]; -23% in assay [7]. For the same substance, the Percentage inhibition (%) at 10 µM in assay [8] is -1%; in assay [15], -1%; in assay [9] it was -7%; in [11] it was -2%; in assay [12] it was -7%; in assay [13], -2%. Also, in assay [14], the Percentage inhibition (%) at 10 µM was found to be 1%. Moreover, in [10], the Percentage inhibition (%) at 1 µM is 97%.
